Patent publication US20260092097A1
Values belong to the substance of their own block, whether it stands above or below them.

Experiments:
[1] = target: OVA (aa257-264) peptide/H-2Kb complex (mouse) (UniProt P01901); assay: SPR (BIAcore 2000), biotinylated pMHCI on streptavidin chip
[2] = target: IL-15 receptor (IL-15RβγC) on 32Dβ cells (human; mouse) (UniProt P14784); assay: cell-based or functional assay
[3] = target: OVA peptide on H-2Kb (mouse); assay: value cited from Alam et al. for the monovalent OT1 TCRα/β heterodimer on immobilised OVA peptide/H-2Kb; not measured in this filing; soluble, other
[4] = target: OVA peptide on H-2Kb (mouse); assay: SPR, BIAcore 2000; biotinylated peptide/H2-Kb/birA on a streptavidin chip; apparent affinity of the bivalent dimer; single-chain; fusion: hIL-15 with hIL-15RαSu/birA (OT1scTCR dimer)
[5] = target: OVA peptide on H-2Kb (mouse); assay: SPR; the murine single-chain CD8α/β domain of the complex binds the same peptide-MHC, so the value is not that of the TCR alone; single-chain; fusion: hIL-15, in complex with scCD8/hIL-15RαSu/birA (OT1scTCR/scCD8 heterodimer)
[6] = target: anti-human IL-15 antibody; assay: ELISA, anti-human IL-15 antibody as capture and as detection
[7] = target: anti-human IL-15 antibody; assay: ELISA, anti-human IL-15 antibody as capture and as detection; reference of the table

Sequence of IL-15 receptor (IL-15RβγC) on 32Dβ cells (human; mouse) (P14784 27-551, chain 1 of 2): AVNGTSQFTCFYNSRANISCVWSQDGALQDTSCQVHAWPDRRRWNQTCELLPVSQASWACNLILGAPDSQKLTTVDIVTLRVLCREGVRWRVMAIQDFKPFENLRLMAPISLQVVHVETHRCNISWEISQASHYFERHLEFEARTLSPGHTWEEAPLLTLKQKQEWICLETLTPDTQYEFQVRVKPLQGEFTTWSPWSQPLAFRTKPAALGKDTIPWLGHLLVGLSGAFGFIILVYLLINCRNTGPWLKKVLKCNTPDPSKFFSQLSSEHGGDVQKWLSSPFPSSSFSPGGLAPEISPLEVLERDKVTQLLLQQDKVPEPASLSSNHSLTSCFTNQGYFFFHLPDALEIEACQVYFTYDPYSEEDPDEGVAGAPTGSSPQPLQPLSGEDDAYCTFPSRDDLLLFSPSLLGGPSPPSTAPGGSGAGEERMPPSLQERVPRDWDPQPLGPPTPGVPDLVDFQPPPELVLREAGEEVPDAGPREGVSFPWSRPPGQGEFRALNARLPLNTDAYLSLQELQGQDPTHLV
Sequence of IL-15 receptor (IL-15RβγC) on 32Dβ cells (human; mouse) (P34902 23-369, chain 2 of 2, further chain): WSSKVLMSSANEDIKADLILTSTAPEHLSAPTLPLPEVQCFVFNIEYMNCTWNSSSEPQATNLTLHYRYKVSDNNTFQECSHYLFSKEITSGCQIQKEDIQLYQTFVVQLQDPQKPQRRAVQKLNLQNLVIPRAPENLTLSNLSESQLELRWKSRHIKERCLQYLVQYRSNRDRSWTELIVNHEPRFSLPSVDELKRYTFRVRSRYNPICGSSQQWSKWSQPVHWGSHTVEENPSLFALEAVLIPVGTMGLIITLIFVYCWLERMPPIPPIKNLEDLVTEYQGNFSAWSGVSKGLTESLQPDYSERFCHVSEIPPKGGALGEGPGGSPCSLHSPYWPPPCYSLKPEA
Sequence of OVA (aa257-264) peptide/H-2Kb complex (mouse) (P01901 22-305, one chain of several): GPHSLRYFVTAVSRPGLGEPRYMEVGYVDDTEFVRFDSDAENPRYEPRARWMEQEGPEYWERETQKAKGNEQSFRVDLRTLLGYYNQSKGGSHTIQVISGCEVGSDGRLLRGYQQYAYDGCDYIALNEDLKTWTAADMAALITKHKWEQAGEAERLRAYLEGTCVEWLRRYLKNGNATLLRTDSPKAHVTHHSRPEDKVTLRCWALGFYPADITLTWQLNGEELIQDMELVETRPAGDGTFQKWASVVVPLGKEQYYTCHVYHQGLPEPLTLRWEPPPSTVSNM

32Dβ cell proliferation, half-maximal stimulation (EC50) [2]: 0.3 nM
Substance: c264scTCR/hIL-15 fusion protein (from UniProt P40933 49-162)

32Dβ cell proliferation, half-maximal stimulation (EC50) [2]: 0.3 nM
Substance: c264scTCR dimer: c264scTCR/hIL-15:c264scTCR/hIL-15RαSu/birA complex (from UniProt P40933 49-162; Q13261 31-95)

EC50 (read off the curve) [6]: 0.2 nM
Relative activity (%) [7]: 100%
Substance: c264scTCR/huIL15N72D fusion protein

The remaining lines, values behind:

Substance: OT1scTCR/scCD8 heterodimer: OT1scTCR/hIL-15:scCD8/hIL-15RαSu/birA complex (from UniProt P40933 49-162; P01731 28-196; P10300 22-175; Q13261 31-95)
EC50 (read off the curve) (anti-murine CD8α mAb): 0.5 nM
Kd [1]: 2600 nM

Substance: OT1scTCR
Kd [3]: 6000 nM
Kd [4]: 30000 nM
Kd [5]: 2600 nM

Substance: OT1scTCR dimer: OT1scTCR/hIL-15:OT1scTCR/hIL-15RαSu/birA complex (from UniProt P40933 49-162; Q13261 31-95)
Kd [1]: 30000 nM
